This is an account of results in article PMC10215190.

For orientation: stoichiometry N means a count of units in the complex or per binding partner.

The target in the assay is recombinant PhaC (PHA synthase Class III) from Arthrospira platensis (Arthrospira platensis). Description: SEC; Sephadex-G50 column, 100 mM sodium phosphate pH 7.4, 1 mL/min, A280; masses estimated from retention times of standards (alcohol dehydrogenase 150 kDa, BSA 66 kDa, ovalbumin 44 kDa); dimer and monomer peaks both seen.

Consider “recombinant PhaC (PHA synthase Class III) from Arthrospira platensis (enzyme)”, for which the stoichiometry N is 2.
